T1: MetR (C-his-MetR) (Shewanella oneidensis MR-1, UniProt Q8EIM1 1-301)
T1 sequence: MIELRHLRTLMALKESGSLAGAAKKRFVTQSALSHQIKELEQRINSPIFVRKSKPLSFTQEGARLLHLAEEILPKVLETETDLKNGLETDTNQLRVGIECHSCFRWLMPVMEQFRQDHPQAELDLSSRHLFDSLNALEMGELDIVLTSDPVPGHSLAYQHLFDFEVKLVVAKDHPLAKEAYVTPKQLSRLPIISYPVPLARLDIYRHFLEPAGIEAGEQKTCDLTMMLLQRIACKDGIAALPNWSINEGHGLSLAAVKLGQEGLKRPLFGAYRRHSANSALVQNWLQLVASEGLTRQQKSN


Experiments:
MetR (C-his-MetR) [1] = biological target: T1, MetR (C-his-MetR); assay: EMSA; 4 mM hCys; 0-250 ng MetR (4B), 500 ng (4C); 50 mM Tris-HCl pH 8.0, 0.5 mM EDTA, 2 mM MgSO4, 1 mM DTT, 100 ug/mL BSA, 10 ug/mL poly(dI-dC), 4 mM hCys, 20% glycerol, 1 nM Cy3 probe, 20 uL; 20 C 10 min; gel; details: protein: recombinant; tags: C-terminal His tag (pET-26b(+), NdeI/XhoI); chain copies: 4; label: 5'-Cy3 on strand 2; blunt
MetR (C-his-MetR) [2] = biological target: T1, MetR (C-his-MetR); assay: competition; 4 mM hCys; 5,000-fold excess over labeled omcA probe, shift disappeared; 50 mM Tris-HCl pH 8.0, 0.5 mM EDTA, 2 mM MgSO4, 1 mM DTT, 100 ug/mL BSA, 10 ug/mL poly(dI-dC), 4 mM hCys, 20% glycerol, 1 nM Cy3 probe, 20 uL; 20 C 10 min; gel; details: protein: recombinant; tags: C-terminal His tag (pET-26b(+), NdeI/XhoI); chain copies: 4; label: none; blunt
MetR (C-his-MetR) [3] = biological target: T1, MetR (C-his-MetR); assay: EMSA; 4 mM hCys; 500 ng MetR; 50 mM Tris-HCl pH 8.0, 0.5 mM EDTA, 2 mM MgSO4, 1 mM DTT, 100 ug/mL BSA, 10 ug/mL poly(dI-dC), 4 mM hCys, 20% glycerol, 1 nM Cy3 probe, 20 uL; 20 C 10 min; gel; details: protein: recombinant, tags: C-terminal His tag (pET-26b(+), NdeI/XhoI), chain copies: 4, label: 5'-Cy3 on strand 2

Row | Binder | binding result (MetR (C-his-MetR) [3]; blunt) | other results
1 | omcA probe (dsDNA) DNA 1: CCACACATTAAATACGACTAATGAGATTTGTTCTTATTTG DNA 2: CAAATAAGAACAAATCTCATTAGTCGTATTTAATGTGTGG |  | binding result (MetR (C-his-MetR) [1]): binds
2 | omcA probe, unlabeled competitor (dsDNA) DNA 1: CCACACATTAAATACGACTAATGAGATTTGTTCTTATTTG DNA 2: CAAATAAGAACAAATCTCATTAGTCGTATTTAATGTGTGG |  | binding result (MetR (C-his-MetR) [2]): binds
3 | dmsE probe (dsDNA) DNA 1: CTTATGGTGTTTTTGAGAATGATTTTCTTTTATTTGATTTC DNA 2: GAAATCAAATAAAAGAAAATCATTCTCAAAAACACCATAAG | binds | 
4 | cymA probe (dsDNA) DNA 1: GTATTAGCTGGAGTTGAAGTACTCTAACGCTCTGCTAAGC DNA 2: GCTTAGCAGAGCGTTAGAGTACTTCAACTCCAGCTAATA |  | binding result (MetR (C-his-MetR) [3]; 5' overhang 1 nt on strand 1 as printed (strand 2 is 39 nt; text says 40 bp)): binds
5 | omcA-m probe (dsDNA) DNA 1: CCACACATTAAATACGACTAAGGGGATTTGGGGGTATTTG DNA 2: CAAATACCCCCAAATCCCCTTAGTCGTATTTAATGTGTGG | no binding | 
6 | glyA probe (dsDNA) DNA 1: CTCAACTCGGCATTGAGGTGCATTCAAGTTAAAACTGTAG DNA 2: CTACAGTTTTAACTTGAATGCACCTCAATGCCGAGTTGAG | binds | 
7 | metR probe (dsDNA) DNA 1: GATTTCAAGCGCAACATGAGCGAAATTCACTTGGAGTGATC DNA 2: GATCACTCCAAGTGAATTTCGCTCATGTTGCGCTTGAAATC | binds | 
8 | luxS probe (dsDNA) DNA 1: GCATCTGACTGATATGAGATGATTTCATCTTAAGTTATC DNA 2: GATAACTTAAGATGAAATCATCTCATATCAGTCAGATGC | binds | 

From PMC13393422, “Cross-regulation of amino acid synthesis and anaerobic electron transfer by MetR-mediated methionine signaling”
